Patent publication US20190134153A1, “IMMUNOMODULATORY EFFECT OF INHALED KINASE INHIBITOR PEPTIDES IN LUNG” (MOERAE MATRIX, INC., priority 2017, published 2019)

Columns and labels:
Experiment in all cases: Kinase Profiling Assay
Format in all cases: biochemical
Details in all cases: 100 μM
[1] = biological target: CLK2(h) (Homo sapiens, UniProt P49760)
[2] = biological target: PAR-1Bα(h) (Homo sapiens, UniProt Q7KZI7)
[3] = biological target: Plk1(h) (Homo sapiens, UniProt P53350)
[4] = biological target: CK1γ1(h) (Homo sapiens, UniProt Q9HCP0)
CK1γ1(h), sequence (Q9HCP0 whole entry): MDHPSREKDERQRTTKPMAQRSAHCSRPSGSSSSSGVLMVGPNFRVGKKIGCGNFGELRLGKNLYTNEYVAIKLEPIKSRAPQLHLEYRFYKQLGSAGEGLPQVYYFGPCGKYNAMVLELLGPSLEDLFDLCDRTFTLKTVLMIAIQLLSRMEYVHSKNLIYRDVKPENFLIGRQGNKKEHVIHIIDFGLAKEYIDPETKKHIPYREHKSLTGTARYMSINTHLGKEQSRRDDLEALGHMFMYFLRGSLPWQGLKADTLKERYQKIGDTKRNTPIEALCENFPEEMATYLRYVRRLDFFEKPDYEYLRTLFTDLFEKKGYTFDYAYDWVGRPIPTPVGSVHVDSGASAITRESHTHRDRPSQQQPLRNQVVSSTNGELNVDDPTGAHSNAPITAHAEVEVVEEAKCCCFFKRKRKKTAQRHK

[5] = biological target: Tie2(R849W)(h) (Homo sapiens, UniProt Q02763, R849W)
Tie2(R849W)(h), sequence (Q02763 23-1124 R849W): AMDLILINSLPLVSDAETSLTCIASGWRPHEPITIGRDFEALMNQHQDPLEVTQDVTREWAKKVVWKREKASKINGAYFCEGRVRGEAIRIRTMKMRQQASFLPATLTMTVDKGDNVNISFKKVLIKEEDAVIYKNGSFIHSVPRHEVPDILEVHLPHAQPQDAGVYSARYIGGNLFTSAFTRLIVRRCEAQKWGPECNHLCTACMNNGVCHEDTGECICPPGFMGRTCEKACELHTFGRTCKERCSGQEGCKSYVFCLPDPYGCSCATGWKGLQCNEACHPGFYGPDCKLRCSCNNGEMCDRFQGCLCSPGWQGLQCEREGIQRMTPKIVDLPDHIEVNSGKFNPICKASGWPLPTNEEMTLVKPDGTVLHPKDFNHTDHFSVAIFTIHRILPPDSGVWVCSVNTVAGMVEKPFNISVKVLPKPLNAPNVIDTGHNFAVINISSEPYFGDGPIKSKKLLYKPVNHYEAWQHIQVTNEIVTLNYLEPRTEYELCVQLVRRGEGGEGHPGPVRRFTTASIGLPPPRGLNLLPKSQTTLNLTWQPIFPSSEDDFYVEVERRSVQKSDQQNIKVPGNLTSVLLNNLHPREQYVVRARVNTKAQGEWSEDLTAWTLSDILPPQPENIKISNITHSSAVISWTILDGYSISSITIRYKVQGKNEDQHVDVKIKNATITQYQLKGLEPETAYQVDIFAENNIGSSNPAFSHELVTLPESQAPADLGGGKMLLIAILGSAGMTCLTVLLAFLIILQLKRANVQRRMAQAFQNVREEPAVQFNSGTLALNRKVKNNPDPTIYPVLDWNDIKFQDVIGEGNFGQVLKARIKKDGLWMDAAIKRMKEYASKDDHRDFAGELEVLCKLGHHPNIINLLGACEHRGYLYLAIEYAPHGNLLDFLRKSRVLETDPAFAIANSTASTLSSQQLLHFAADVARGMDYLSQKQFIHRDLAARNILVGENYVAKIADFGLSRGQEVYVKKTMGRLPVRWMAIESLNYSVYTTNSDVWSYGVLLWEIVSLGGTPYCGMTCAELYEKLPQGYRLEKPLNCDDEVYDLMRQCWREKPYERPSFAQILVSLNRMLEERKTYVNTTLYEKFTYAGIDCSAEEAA

[6] = biological target: PAK6(h) (Homo sapiens, UniProt Q9NQU5)
PAK6(h), sequence (Q9NQU5 whole entry): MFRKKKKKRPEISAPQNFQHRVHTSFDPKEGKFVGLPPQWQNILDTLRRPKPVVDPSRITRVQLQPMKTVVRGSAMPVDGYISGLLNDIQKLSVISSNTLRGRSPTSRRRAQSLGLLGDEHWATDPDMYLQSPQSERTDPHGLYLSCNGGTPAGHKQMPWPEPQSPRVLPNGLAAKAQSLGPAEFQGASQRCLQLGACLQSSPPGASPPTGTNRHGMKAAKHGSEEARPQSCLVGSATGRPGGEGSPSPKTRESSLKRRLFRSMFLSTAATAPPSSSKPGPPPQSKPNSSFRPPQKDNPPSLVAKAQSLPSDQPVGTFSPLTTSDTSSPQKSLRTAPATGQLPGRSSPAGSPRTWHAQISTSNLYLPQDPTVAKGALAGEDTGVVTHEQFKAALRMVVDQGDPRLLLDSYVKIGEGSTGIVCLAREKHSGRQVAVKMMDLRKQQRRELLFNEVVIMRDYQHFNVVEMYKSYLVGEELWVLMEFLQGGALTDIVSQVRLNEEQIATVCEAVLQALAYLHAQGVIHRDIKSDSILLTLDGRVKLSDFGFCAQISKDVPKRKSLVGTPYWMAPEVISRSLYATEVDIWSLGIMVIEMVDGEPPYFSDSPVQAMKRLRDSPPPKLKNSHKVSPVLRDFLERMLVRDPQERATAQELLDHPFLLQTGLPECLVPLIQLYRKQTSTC

[7] = biological target: T1, MKK7β(h) (Homo sapiens, UniProt O14733)
T1 sequence (O14733 1-419): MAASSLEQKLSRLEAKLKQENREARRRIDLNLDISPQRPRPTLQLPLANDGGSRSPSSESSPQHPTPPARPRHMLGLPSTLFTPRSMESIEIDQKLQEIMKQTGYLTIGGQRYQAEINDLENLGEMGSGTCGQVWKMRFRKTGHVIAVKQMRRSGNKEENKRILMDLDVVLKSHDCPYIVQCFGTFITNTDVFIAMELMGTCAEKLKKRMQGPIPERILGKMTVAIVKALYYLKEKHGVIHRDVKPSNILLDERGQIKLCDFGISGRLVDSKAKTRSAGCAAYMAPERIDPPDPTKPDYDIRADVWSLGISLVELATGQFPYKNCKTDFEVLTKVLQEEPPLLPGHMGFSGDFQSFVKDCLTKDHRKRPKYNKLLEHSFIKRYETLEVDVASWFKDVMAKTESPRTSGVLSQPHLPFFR

[8] = biological target: T2, JAK3(h) (Homo sapiens, UniProt P52333)
T2 sequence (P52333 1-1124): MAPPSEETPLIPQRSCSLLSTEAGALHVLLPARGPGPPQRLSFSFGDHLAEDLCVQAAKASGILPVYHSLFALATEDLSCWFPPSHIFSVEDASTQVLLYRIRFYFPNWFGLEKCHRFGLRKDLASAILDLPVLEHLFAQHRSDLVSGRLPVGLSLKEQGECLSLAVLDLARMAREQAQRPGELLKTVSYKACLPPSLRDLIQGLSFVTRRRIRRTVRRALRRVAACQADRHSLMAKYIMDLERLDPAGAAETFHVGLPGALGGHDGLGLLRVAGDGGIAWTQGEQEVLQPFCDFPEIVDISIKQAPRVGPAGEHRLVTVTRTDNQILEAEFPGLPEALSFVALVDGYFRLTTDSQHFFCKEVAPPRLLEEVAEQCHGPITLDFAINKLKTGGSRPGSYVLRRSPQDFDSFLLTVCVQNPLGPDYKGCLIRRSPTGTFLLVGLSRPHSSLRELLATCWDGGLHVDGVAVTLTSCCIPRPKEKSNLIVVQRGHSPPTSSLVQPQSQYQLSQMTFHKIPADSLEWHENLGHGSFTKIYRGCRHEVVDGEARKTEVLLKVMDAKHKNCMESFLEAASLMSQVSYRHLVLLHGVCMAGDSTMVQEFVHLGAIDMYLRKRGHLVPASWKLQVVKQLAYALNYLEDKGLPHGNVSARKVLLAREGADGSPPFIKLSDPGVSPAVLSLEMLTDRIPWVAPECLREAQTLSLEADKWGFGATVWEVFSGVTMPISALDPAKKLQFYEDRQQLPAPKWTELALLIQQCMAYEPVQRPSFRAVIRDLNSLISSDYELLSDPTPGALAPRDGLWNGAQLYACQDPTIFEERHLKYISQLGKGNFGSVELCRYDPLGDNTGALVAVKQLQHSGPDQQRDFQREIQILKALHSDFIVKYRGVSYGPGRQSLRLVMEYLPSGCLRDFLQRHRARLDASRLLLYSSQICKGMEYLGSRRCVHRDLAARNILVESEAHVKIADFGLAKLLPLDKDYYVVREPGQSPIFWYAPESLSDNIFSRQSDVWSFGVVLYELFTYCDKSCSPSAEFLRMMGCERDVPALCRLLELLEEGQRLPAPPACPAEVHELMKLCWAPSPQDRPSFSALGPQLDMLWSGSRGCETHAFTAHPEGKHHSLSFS

[9] = biological target: Snk(h) (Homo sapiens, UniProt Q9NYY3)
Snk(h), sequence (Q9NYY3 whole entry): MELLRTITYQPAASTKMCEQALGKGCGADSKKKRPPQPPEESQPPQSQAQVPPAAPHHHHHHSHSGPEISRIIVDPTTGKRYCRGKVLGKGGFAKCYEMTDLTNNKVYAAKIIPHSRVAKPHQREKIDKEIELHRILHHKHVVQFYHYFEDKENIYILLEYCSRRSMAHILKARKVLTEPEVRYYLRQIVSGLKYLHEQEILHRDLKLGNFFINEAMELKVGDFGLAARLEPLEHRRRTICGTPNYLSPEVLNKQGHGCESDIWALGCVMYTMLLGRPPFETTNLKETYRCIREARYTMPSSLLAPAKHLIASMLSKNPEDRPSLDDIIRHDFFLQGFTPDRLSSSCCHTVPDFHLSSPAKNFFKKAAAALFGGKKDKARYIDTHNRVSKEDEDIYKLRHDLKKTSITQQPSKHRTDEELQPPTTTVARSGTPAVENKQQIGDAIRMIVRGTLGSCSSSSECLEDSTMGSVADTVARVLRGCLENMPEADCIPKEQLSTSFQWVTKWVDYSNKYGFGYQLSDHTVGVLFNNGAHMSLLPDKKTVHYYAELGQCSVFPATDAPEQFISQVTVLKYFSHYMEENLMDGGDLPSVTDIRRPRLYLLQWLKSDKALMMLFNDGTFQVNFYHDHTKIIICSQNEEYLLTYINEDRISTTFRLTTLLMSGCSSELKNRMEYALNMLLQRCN

[10] = biological target: c-RAF(h) (Homo sapiens, UniProt P04049)
[11] = biological target: Abl (M351T)(h) (Homo sapiens, UniProt P00519, M351T)
[12] = biological target: EGFR(T790M)(h) (Homo sapiens, UniProt P00533, T790M)
[13] = biological target: T3, Aurora-A(h) (Homo sapiens, UniProt O14965)
T3 sequence (O14965 1-403): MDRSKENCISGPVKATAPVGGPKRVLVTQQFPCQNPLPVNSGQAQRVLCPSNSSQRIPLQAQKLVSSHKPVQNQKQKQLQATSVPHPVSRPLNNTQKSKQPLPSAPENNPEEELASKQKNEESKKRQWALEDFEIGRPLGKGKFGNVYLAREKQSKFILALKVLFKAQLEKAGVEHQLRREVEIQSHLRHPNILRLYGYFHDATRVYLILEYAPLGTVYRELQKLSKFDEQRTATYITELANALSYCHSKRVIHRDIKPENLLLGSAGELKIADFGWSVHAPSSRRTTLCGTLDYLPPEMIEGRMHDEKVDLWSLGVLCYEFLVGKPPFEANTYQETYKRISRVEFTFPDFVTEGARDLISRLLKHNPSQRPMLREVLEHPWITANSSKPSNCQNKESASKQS

[14] = biological target: CK1γ2(h) (Homo sapiens, UniProt P78368)
CK1γ2(h), sequence (P78368 whole entry): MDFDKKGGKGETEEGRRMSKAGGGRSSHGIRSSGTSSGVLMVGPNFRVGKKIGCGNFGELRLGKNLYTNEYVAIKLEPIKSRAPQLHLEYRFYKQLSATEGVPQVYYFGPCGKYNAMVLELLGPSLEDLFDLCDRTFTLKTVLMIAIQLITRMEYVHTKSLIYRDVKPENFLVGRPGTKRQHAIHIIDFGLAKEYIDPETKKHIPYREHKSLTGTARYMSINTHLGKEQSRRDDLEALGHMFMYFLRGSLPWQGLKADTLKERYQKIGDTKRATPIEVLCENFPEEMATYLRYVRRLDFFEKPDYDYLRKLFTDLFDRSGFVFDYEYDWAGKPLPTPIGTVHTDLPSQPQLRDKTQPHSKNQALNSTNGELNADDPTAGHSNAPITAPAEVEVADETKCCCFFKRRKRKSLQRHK

PAR-1Bα(h), sequence (Q7KZI7 1-725 isoform Q7KZI7-4): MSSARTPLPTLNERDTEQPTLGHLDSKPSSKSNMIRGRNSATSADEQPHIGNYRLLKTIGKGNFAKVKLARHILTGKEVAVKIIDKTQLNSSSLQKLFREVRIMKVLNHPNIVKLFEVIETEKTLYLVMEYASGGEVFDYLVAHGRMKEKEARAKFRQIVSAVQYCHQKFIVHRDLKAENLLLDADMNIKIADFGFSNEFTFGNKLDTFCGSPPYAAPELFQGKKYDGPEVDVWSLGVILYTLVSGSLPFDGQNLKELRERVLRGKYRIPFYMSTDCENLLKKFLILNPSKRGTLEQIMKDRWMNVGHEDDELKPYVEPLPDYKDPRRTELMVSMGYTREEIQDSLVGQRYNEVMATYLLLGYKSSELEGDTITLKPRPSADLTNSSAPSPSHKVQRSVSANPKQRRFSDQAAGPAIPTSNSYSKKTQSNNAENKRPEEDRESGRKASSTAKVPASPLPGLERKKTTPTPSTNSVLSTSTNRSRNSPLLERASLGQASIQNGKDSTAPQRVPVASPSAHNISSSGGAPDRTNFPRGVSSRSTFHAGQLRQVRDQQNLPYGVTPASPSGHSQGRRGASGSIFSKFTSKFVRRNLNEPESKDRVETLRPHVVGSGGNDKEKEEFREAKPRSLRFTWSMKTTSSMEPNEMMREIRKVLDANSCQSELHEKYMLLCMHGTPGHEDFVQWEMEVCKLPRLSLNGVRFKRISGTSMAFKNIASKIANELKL
Plk1(h), sequence (P53350 whole entry): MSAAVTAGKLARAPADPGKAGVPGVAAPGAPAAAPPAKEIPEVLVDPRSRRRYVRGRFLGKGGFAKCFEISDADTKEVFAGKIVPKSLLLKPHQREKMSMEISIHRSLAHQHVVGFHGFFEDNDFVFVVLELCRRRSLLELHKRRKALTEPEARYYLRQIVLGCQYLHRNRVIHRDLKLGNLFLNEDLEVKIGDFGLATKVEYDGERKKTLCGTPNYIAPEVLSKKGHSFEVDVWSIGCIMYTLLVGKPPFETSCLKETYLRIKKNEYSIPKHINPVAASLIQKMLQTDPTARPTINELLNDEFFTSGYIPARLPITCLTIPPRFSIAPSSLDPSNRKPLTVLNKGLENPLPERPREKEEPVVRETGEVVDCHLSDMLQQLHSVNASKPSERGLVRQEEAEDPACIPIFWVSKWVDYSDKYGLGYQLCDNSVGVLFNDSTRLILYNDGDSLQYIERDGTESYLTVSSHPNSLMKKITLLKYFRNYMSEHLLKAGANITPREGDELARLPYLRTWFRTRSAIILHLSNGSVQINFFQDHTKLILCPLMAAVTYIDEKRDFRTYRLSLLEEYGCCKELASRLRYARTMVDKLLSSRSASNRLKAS

| Sequence | % activity [1] [%] | % activity [2] [%] | % activity [3] [%] | % activity [4] [%] | % activity [5] [%] | % activity [6] [%] | % activity [7] [%] | % activity [8] [%] | % activity [9] [%] | % activity [10] [%] | % activity [11] [%] | % activity [12] [%] | % activity [13] [%] | % activity [14] [%] |
| --- | --- | --- | --- | --- | --- | --- | --- | --- | --- | --- | --- | --- | --- | --- |
| YARAAARQARAKALNRQLGVA [MMI-0200] | 97 | 110 | 128 | 98 | 89 |  |  |  |  |  |  |  |  |  |
| KAFAKLAARLYRKALARQLGVAA [MMI-0400] |  |  |  |  | 108 | 100 | 94 | 122 | 131 |  |  |  |  |  |
| HRRIKAWLKKIKALARQLGVAA [MMI-0500] |  | 97 |  |  |  |  |  | 95 | 122 | 19 | 61 | 70 | 110 |  |
| FAKLAARLYRKALARQLGVAA [MMI-0300] |  |  |  |  |  |  | 100 |  |  |  | 90 | 100 | 92 | 123 |
